From patent US20240199731A1 (published 2024)

Molecular target: T1, Recombinant human IL-17A (Peprotech, cat #AF-200-17) (human, UniProt Q16552 24-155)
T1 construct: Bought protein
Assay: SPR (BIAcore T200), IL-17A coupled to CM5 chip, VH as analyte, single-cycle kinetics
Experimental: VH binding kinetics were then determined from the (blank subtracted) sensorgram traces using 1:1 binding models and BIAevaluation software.

T1 sequence (Q16552 24-155): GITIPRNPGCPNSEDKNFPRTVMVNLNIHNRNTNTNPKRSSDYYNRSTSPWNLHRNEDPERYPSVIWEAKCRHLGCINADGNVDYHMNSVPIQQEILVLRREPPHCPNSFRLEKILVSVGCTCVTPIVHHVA

B1: Clone 1.17 (VHH)
VHH: EVQLVESGGGLVQPGGSLRLSCAASGFTFSSYSMYWVRQAPGKGLEWVAEIKPTGSVQYYVSDVKGRFTISRDNAKNSLYLQMNSLRAEDTAVYYCAKGEILPLYFDYWGQGTLVTVSS
notes: Human single VH domain; also called VH 1.17.1
Kd: 1.5 nM
